Experimental data: patent publication US9688732B2, “Extracellular matrix metalloproteinase inducer (EMMPRIN) peptides and binding antibodies” (Rappaport Family Institute for Research in the Medical …, priority 2012, dated 2017)

Target: T1, Mouse recombinant EMMPRIN (mrEMMPRIN) (Mus musculus, UniProt P18572)
T1 construct: mrEMMPRIN is a chimeric protein composed of the extracellular portion of EMMPRIN fused to the Fc portion of human IgG; purchased R&D Systems
Experiment: Indirect ELISA, specificity of the antibodies to EMMPRIN
Settings: mrEMMPRIN 200 ng/ml coat; OD of Fc binding subtracted; n=4
Method: Indirect ELISA: This assay was developed to determine the specificity of the polyclonal antibodies for the EMMPRIN protein. Mouse recombinant EMMPRIN (mrEMMPRIN, 200 ng/ml in PBS, R&D Systems) or the Fc portion of the human IgG were applied on wells of a 96-well plate and incubated at 4° C. overnight to coat the wells. Excess antigens were removed by washing three times with wash buffer (0.05% Tween-20 in PBS), followed by blocking of the remaining free protein-binding sites with blocking buffer (1% BSA in PBS) for 2 hours at room temperature. After additional washes, strips of mouse recombinant EMMPRIN or Fc were coated with each of the primary antibodies (immune or pre-immune sera) diluted 1:500 and 1:5000 in PBS, and incubated for 2 hours at room temperature. […] The reaction was stopped with stop solution (0.25M HCL), and the absorbance of each well was measured at 450 nm and at a reference of 540 nm. […]
The specificity and ability of the antibodies to recognize mrEMMPRIN in its native structure were also tested by indirect ELISA, using mrEMMPRIN (200 ng/ml) or human IgG Fc protein (hFC, 200 ng/ml) to coat 96-well plates. […] P values were calculated by the Mann-Whitney T test. **, p<0.01, relative to pre-immune sera. […]

T1 sequence (P18572 with tags, fused parts or gaps isoform P18572-2 limits assumed): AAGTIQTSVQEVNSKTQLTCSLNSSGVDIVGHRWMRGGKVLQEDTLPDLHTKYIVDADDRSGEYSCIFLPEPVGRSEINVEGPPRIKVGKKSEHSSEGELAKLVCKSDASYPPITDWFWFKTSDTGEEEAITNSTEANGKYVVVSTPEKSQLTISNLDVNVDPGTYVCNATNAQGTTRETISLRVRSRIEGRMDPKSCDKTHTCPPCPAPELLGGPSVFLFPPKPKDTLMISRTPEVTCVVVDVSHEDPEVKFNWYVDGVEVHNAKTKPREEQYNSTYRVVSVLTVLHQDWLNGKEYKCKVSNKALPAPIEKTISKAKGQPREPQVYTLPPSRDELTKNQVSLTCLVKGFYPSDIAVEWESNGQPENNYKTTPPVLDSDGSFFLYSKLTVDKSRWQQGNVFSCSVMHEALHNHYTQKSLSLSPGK

Immune sera (OD values, indirect ELISA): 0.052 ± 0.026
Sequence: GHRWMRGGKVLC [Peptide 161, 12aa peptide from the EC-I domain of mouse EMMPRIN]
